Source: patent publication US20100278801A1
Several values for one entry are separate records, joined by “and”; a condition that tells them apart may be missing. Equal entries are not always repeated. Where two headings read alike, the source gives them in different places. Values belong to the substance of their own block, whether it stands above or below them.

Assays:
[1] = target: NRG1-β (UniProt Q02297); experiment: 125I-NRG1-β saturation binding, heterodimer immobilised on anti-Fc coated plate
Target sequence in this assay (Q02297 other isoform, or with tags, fused parts or gaps limits assumed): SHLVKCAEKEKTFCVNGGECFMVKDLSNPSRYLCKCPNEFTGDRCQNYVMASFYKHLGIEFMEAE

[2] = target: TGF-α (UniProt P01135); experiment: 125I-TGF-a saturation binding, heterodimer immobilised on anti-Fc coated plate; not saturated at 100 nM
Target sequence in this assay (P01135 40-89 limits assumed): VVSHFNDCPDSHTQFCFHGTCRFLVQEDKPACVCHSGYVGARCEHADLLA

[3] = target: HB-EGF (UniProt Q99075); experiment: biotin-ligand binding; conditions: Fc fusion
Chain of HB-EGF (Q99075 63-148): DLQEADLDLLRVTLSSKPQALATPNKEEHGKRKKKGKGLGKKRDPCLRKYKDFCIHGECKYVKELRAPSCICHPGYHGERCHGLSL

[4] = target: TGF-α (UniProt P01135); experiment: biotin-ligand binding; conditions: Fc fusion
Target sequence in this assay (P01135 40-89): as the sequence (P01135 40-89 limits assumed) above

[5] = target: EGF (UniProt P01133); experiment: Eu-EGF competition; conditions: Fc fusion
Chain of EGF (P01133 971-1023): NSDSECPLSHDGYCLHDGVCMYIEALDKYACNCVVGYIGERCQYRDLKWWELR

[6] = target: EGF (UniProt P01133); experiment: Eu-ligand saturation binding; conditions: Fc fusion
[7] = target: TGF-α (UniProt P01135); conditions: Fc fusion
Target sequence in this assay (P01135 40-89): as the sequence (P01135 40-89 limits assumed) above

[8] = target: NRG1-β (UniProt Q02297); conditions: Fc fusion
Target sequence in this assay (Q02297 other isoform, or with tags, fused parts or gaps): as the sequence (Q02297 other isoform, or with tags, fused parts or gaps limits assumed) above

- Kd [1]: 1.6 nM
- Kd [2]: > 30 nM
Substance: RB222 (from UniProt P00533 25-645; P21860 20-643) (Fc fusion)

- Kd [7]: 1.7 nM
Substance: EGFRT15S:Fc homodimer (from UniProt P00533 25-645)

- Kd [8]: 17.1 nM and 17 nM
Substance: HER3:Fc (from UniProt P21860 20-643)

More lines, now with the values behind:

Substance: RB222 (from UniProt P00533 25-645; P21860 20-643)
- Kd [3]: 1.58 nM
- Kd [4]: 42.6 nM

Substance: RB242 (from UniProt P00533 25-645; P21860 20-643)
- Ki [5]: 0.89 nM
- Kd [6]: 0.77 nM
